This passage reports binding result and Kd results from article PMC9371974 (Nature Structural & Molecular Biology, 2022).

Holding throughout (settings): both partners purified
For test [1], the target named is recombinant mouse PrP flexible tail fragment (rmPrP23-110) (Mus musculus, UniProt P04925). In words: ELISA.
The target in test [2] is globular domain fragment of recombinant human PrP (rhPrP121-230) (Homo sapiens, UniProt P04156). In words: ELISA.
Test [3] has as its target mPrP immobilized on the SPR sensor chip (rmPrP) (Mus musculus, UniProt P04925). Description: SPR.
For test [4], the target named is full-length, recombinant mouse prion protein (rmPrP23-231) (Mus musculus, UniProt P04925). In words: FRET or BRET.

B1:  (antibody, V domains shown)
VH: QVQLQQSGTELVMPGASVKMSCKASGYTFTDYWMHWVKQRPGQGLEWIGSIDPSDSYTSHNEKFKGKATLTVDESSSTAYMQLSSLTSEDSAVYFCSRSGYGYAAMEYWGQGTSVTVSS
VL: DIVLTQSPAILSVSPGERVSFSCRASQNIGTSIHWYQQRTNESPRLIIKYASESISGIPSRFSGSGSGTDFTLSINSVESEDIADYYCQQSNTWPYTFGGGTKLELK
notes: also called holo-Y104A; hcY104A IgG holoantibody
As for B1, the binding result in test [1] is recorded as “no binding”; in test [2], “binds”.

B2: POM1 scFv pomolog hcD52A (scFv, V domains shown)
VH: QVQLQQSGTELVMPGASVKMSCKASGYTFTDYWMHWVKQRPGQGLEWIGSIAPSDSYTSHNEKFKGKATLTVDESSSTAYMQLSSLTSEDSAVYFCSRSGYGYYAMEYWGQGTSVTVSS
VL: DIVLTQSPAILSVSPGERVSFSCRASQNIGTSIHWYQQRTNESPRLIIKYASESISGIPSRFSGSGSGTDFTLSINSVESEDIADYYCQQSNTWPYTFGGGTKLELK
Take B2: the values for the Kd in test [3] and in test [4] were 103 nM and 14.2 nM, respectively.
